# Biological target: SAP (UniProt O60880)
# Experiment: GST-SAP pull-down, anti-myc blot
# Conditions: reference: myc-CD3ζ wild type
substance,measurement,setting,value
CD3ζ (from UniProt P20963) Y83F,binding against the reference,sites Y83,weaker
CD3ζ (from UniProt P20963) Y72F,binding against the reference,sites Y72,weaker
CD3ζ (from UniProt P20963) Y72F/Y83F (first ITAM),binding against the reference,"sites Y72,Y83",lost

# Source: article PMC3418226
